Measured values: patent US20260008817A1, “CYCLIC PEPTIDE OR SALT THEREOF, AND USES THEREOF” (FUJIFILM Corporation, priority 2023, published 2026)
Positions of bridges follow the written chain, without caps; N, C: chain ends. Non-standard residues stand in square brackets, D forms with d. No end group written: not given here. COCH2 = acetyl group that carries the bridge; NMeL = CN[C@@H](CC(C)C)C(=O)O; hLeu = CC(C)CC[C@H](N)C(=O)O; hCys = N[C@@H](CCS)C(=O)O; Orn = NCCC[C@H](N)C(=O)O; Dab = NCC[C@H](N)C(=O)O; Dap = NC[C@H](N)C(=O)O

What was measured:
[1] = biological target: T1, Recombinant Human FGFR1 alpha (IIIc) Fc Chimera Protein (Homo sapiens, UniProt P11362); assay: ELISA binding affinity of enzymatically synthesized peptide to FGFR; details: ELISA luminescence signal at 10 nmol/L peptide, SEQ ID NO: 239 standardized to 1; enzyme synthesis product
T1 construct: purchased R&D systems 658-FR-050
Outline: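 Cell-free PUREfrex-translated cyclic peptides (Myc/HiBiT-tagged, quantified by HiBiT luminescence) bound 3 h at room temperature to immobilized FGFR1α(IIIc)-Fc, detected with anti-Myc and chemiluminescence. FGFR-specific signal at 10 nmol/L normalized to a reference cyclic peptide and graded A–D.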

[2] = Reductive stability of cyclic peptide (DTT treatment, LC); assay type: physicochemical; details: residual rate after DTT treatment, room temperature, 1 hour
Description: The molecular stability of the cyclic peptide was evaluated by analyzing an aqueous solution of the cyclic peptide treated with a reducing agent by liquid chromatography (LC).
The reducing agent treatment was performed under the following conditions based on the concentration of glutathione contained in the cells. 25 μL of a 0.2 mg/mL cyclic peptide aqueous solution was prepared, 58.8 μL of a 12.6 mmol/L DTT aqueous solution was added to the aqueous solution, and the mixture was incubated at room temperature for 1 hour to obtain an aqueous solution of the cyclic peptide treated with a reducing agent. The DTT aqueous solution was used by diluting a 1 mol/L (+−)-dithiothreitol (DTT) solution (FUJIFILM Wako Pure Chemical Corporation, 044-33871) with water. The total area of all the peaks in LC/MS of the cyclic peptide before the reducing agent treatment was set to 100%, and the proportion of the total area of all the peaks in LC/MS of the aqueous solution of the cyclic peptide treated with the reducing agent was determined to calculate the residual rate of the cyclic peptide, and the molecular stability was evaluated according to the following evaluation criteria. The evaluation result preferably satisfies the evaluation criteria A, B, or C.
• A: The residual rate of cyclic peptide is 90% or more. • B: The residual rate of the cyclic peptide is 70% or more and less than 90% • C: The residual rate of the cyclic peptide is 50% or more and less than 70% • D: The residual rate of the cyclic peptide is less than 50%
The LC used for the evaluation of molecular stability was set to the following conditions. • LC device: Prominence series (pump, column oven, autosampler, detector) (manufactured by Shimadzu Corporation) • Detector: photodiode array detector (SPD-M20A), measurement wavelength of 280 nm • Column: TSKgel ODS-100V, inner diameter of 4.6 mm×length of 150 mm, particle diameter of 5 μm (manufactured by Tosoh Corporation) • Eluent A: solution containing 0.1% trifluoroacetic acid as solute, and solvent is 100% water • Eluent B: solution containing 0.1% trifluoroacetic acid as solute, and solvent is 100% acetonitrile • Flow rate: 1.0 mL/min • Injection amount: 25 μL • Gradient: 20% to 50%: Eluent B (0 to 15 minutes), 100%: Eluent B (15 minutes) • Column temperature: 40° C.

[3] = biological target: T1, Recombinant Human FGFR1 alpha (IIIc) Fc Chimera Protein; assay: SPR binding affinity of chemically synthesized cyclic peptide to immobilized FGFR; details: SPR binding amount at 10 nmol/L cyclic peptide, 25° C.; chemically synthesized product
Description: The binding affinity of the cyclic peptide to FGFR was evaluated using a surface plasmon resonance (SPR) method.
The binding affinity of the chemically synthesized cyclic peptide to FGFR was evaluated by the following procedure.
A CM5 sensor chip (Cytiva, 29149603) was set in Biacore-T200 (manufactured by Cytiva) which is a surface plasmon resonance device, and an HBS-EP buffer (Cytiva, BR100826) was added as a running buffer at a flow rate of 10 μL/min to equilibrate the flow channel. Next, 70 μL of a mixed aqueous solution of 0.2 mol/L 1-(3-dimethylaminopropyl)-3-ethylcarbodiimide (EDC) and 0.05 mol/L N-hydroxysuccinimide (NHS) was added to activate the sensor chip. Then, Recombinant Human FGFR1 alpha (IIIc) Fc Chimera Protein CF (R&D systems, 658-FR-050) prepared at 50 nmol/L in an Acetate 4.5 buffer (Cytiva, BR100350) was added thereto to perform immobilization at about 5000 RU. Thereafter, the blocking treatment was performed with an ethanolamine solution. In addition, in another flow channel of the same sensor chip, blocking treatment was performed immediately after activation without immobilizing FGFR.
A cyclic peptide diluted to 10 nmol/L using HBS-EP was added to each flow channel of the FGFR-immobilized sensor chip produced above at 25° C. for 10 minutes, then HBS-EP was allowed to flow as a running buffer for 30 minutes, and the binding of the cyclic peptide to FGFR was measured. Thereafter, a regeneration treatment of removing the bound cyclic peptide was performed by repeating the flow of a regeneration liquid in which sodium chloride powder was dissolved in Glysine 1.5 (Cytiva, BR100354) to a final concentration of 0.15 mol/L for 1 minute in each flow channel twice. The binding amount of the cyclic peptide was evaluated from the difference between the measured value of Biacore-T200 in the flow channel in which FGFR was immobilized and the measured value of Biacore-T200 in the flow channel in which FGFR was not immobilised, in a case where a 10 nmol/L cyclic peptide was allowed to flow.
The binding amount of the cyclic peptide evaluated above was normalized to the binding amount of the cyclic peptide molecules per one molecule of FGFR using the molecular weights of the cyclic peptide and FGFR, and the binding affinity to FGFR was evaluated according to the following evaluation criteria. The evaluation result preferably satisfies the evaluation criteria A, B, or C.
• A: The binding amount is 0.7 molecules of the cyclic peptide/one molecule of FGFR or more. • B: The binding amount is 0.5 molecules of the cyclic peptide/one molecule of FGFR or more and less than 0.7 molecules of cyclic peptide/one molecule of FGFR. • C: The binding amount is 0.1 molecules of cyclic peptide/one molecule of FGFR or more and less than 0.5 molecules of cyclic peptide/one molecule of FGFR. • D: The binding amount is less than 0.1 molecules of the cyclic peptide/one molecule of FGFR.

[4] = biological target: Recombinant Human FGFR1 alpha (IIIc) Fc Chimera Protein, CF (R&D systems, 658-FR-050) (human) (UniProt P11362); assay: SPR grade, peptide 10 nmol/L over FGFR1-Fc; details: scale: moleculesofcyclicpeptide/onemoleculeoffgfr
Sequence of Recombinant Human FGFR1 alpha (IIIc) Fc Chimera Protein, CF (R&D systems, 658-FR-050) (human) (P11362 22-376, change not shown): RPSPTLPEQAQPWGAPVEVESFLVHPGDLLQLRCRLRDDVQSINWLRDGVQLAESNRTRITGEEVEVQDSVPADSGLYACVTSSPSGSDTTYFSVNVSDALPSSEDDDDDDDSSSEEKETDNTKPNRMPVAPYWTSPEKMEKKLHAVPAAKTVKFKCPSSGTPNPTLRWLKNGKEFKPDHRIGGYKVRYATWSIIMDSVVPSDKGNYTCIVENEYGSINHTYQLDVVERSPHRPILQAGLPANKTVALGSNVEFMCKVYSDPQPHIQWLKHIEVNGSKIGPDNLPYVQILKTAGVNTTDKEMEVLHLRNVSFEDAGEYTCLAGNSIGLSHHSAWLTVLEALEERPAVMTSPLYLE

T1 sequence (P11362 with tags, fused parts or gaps limits assumed): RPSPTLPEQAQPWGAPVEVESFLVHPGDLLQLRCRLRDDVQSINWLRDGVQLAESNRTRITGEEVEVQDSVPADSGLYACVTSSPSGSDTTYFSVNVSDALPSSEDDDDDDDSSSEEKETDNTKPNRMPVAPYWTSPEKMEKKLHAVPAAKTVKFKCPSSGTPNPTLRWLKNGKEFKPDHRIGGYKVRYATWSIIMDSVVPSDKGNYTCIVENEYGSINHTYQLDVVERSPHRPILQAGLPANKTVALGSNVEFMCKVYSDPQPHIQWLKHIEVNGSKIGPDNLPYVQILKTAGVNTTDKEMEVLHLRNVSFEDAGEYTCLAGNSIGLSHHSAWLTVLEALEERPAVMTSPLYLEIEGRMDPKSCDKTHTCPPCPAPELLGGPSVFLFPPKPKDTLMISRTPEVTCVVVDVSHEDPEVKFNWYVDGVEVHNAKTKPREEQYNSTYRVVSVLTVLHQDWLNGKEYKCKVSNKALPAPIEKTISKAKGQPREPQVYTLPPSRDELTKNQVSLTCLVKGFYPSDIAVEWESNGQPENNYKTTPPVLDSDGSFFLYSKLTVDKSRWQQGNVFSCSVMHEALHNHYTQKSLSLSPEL

binding amount (SPR, molecules of cyclic peptide bound per one molecule of FGFR at 10 nmol/L peptide) [4]	Molecule	Evaluation result of reductive stability [2]	Evaluation result of binding affinity to FGFR [3]	other results
–	326 (IK(COCH2)VYTFDAHAHSLDAALTCI; thioether 2-19 (inferred)) [compound 326]	–	–	Evaluation result of binding affinity to FGFR [1]: B (0.5 or more and less than 0.7)
–	327 (A[hCys]VWTFDRHAQEISQALHK(COCH2)VKKK; thioether 2-19) [compound 327]	A (The residual rate of cyclic peptide is 90% or more.)	A (The binding amount is 0.7 molecules of the cyclic peptide/one molecule of FGFR or more.)	–
–	328 (A[hCys]VWTFDRHAQEISQALH[Orn](COCH2)VKKK; thioether 2-19) [compound 328]	A (The residual rate of cyclic peptide is 90% or more.)	A (The binding amount is 0.7 molecules of the cyclic peptide/one molecule of FGFR or more.)	–
–	329 (A[hCys]VWTFDRHAQEISQALH[Dab](COCH2)VKKK; thioether 2-19) [compound 329]	A (The residual rate of cyclic peptide is 90% or more.)	B (The binding amount is 0.5 molecules of the cyclic peptide/one molecule of FGFR or more and less than 0.7 molecules of cyclic peptide/one molecule of FGFR.)	–
–	330 (A[hCys]VWTFDRHAQEISQALH[Dap](COCH2)VKKK; thioether 2-19) [compound 330]	A (The residual rate of cyclic peptide is 90% or more.)	A (The binding amount is 0.7 molecules of the cyclic peptide/one molecule of FGFR or more.)	–
–	331 (AK(COCH2)VWTFDRHAQEISQALH[hCys]VKKK; thioether 2-19) [compound 331]	A (The residual rate of cyclic peptide is 90% or more.)	B (The binding amount is 0.5 molecules of the cyclic peptide/one molecule of FGFR or more and less than 0.7 molecules of cyclic peptide/one molecule of FGFR.)	–
–	332 (AXVWTFDRHAQEISQALHXVKKK; not fully specified; Description of Artificial Sequence: Cyclic peptide) [compound 332]	A (The residual rate of cyclic peptide is 90% or more.)	A (The binding amount is 0.7 molecules of the cyclic peptide/one molecule of FGFR or more.)	–
–	333 (AXVWTFDRHAQEISQALHXVKKK; not fully specified; Description of Artificial Sequence: Cyclic peptide) [compound 333]	A (The residual rate of cyclic peptide is 90% or more.)	A (The binding amount is 0.7 molecules of the cyclic peptide/one molecule of FGFR or more.)	–
0.1 to 0.5	F[Orn](COCH2)VYTFDAHAHS[NMeL]DAALN[hCys]IKKK (thioether 2-19) [cyclic peptide SEQ ID NO: 339]	–	–	–
0.5 to 0.7	AK(COCH2)VWTFDRHAQEISQALH[hCys]VKKK (thioether 2-19) [cyclic peptide SEQ ID NO: 331]	–	–	–
0.1 to 0.5	F[Orn](COCH2)VYTFDAHAHSLDAALN[hCys]KKK (thioether 2-19) [cyclic peptide SEQ ID NO: 342]	–	–	–
0.1 to 0.5	F[Orn](COCH2)VYTFDAHAHSLDAALN[hCys]IKKK (thioether 2-19) [cyclic peptide SEQ ID NO: 337]	–	–	–
> 0.7	A[Dab](COCH2)VWTFDRHAQEISQALH[hCys]VKKK (thioether 2-19) [cyclic peptide SEQ ID NO: 333]	–	–	–
> 0.7	A[hCys]VWTFDRHAQEISQALHK(COCH2)VKKK (thioether 2-19) [cyclic peptide SEQ ID NO: 327]	–	–	–
> 0.7	A[hCys]VWTFDRHAQEISQALH[Dap](COCH2)VKKK (thioether 2-19) [cyclic peptide SEQ ID NO: 330]	–	–	–
0.1 to 0.5	FXVYTFDAHAHSLDAALNXIKKK ((Orn(propyl)) and (Hcy) homocysteine joined by a thioether ring) [cyclic peptide SEQ ID NO: 338]	–	–	–
0.1 to 0.5	[Orn](COCH2)VYTFDAHAHSLDAALN[hCys]IKKK (thioether 1-18) [cyclic peptide SEQ ID NO: 341]	–	–	–
< 0.1	ACVWTFDRHAQEISQALHCVKKK (disulfide 2-19) [cyclic peptide SEQ ID NO: 336]	–	–	–
> 0.7	A[hCys]VWTFDRHAQEISQALH[Orn](COCH2)VKKK (thioether 2-19) [cyclic peptide SEQ ID NO: 328]	–	–	–
0.5 to 0.7	F[Orn](COCH2)VYTFDAHAHS[hLeu]DAALN[hCys]IKKK (thioether 2-19) [cyclic peptide SEQ ID NO: 340]	–	–	–
> 0.7	A[Dap](COCH2)VWTFDRHAQEISQALH[hCys]VKKK (thioether 2-19) [cyclic peptide SEQ ID NO: 334]	–	–	–
0.5 to 0.7	A[hCys]VWTFDRHAQEISQALH[Dab](COCH2)VKKK (thioether 2-19) [cyclic peptide SEQ ID NO: 329]	–	–	–
> 0.7	A[Orn](COCH2)VWTFDRHAQEISQALH[hCys]VKKK (thioether 2-19) [cyclic peptide SEQ ID NO: 332]	–	–	–
